Laboratory results from IntAct's records for PubMed 31515488.

B1: Cyclin-D1-binding protein 1 (Homo sapiens), O95273 (parent)
chain: MASATAPAAAVPTLASPLEQLRHLAEELRLLLPRVRVGEAQETTEEFNREMFWRRLNEAAVTVSREATTLTIVFSQLPLPSPQETQKFCEQVHAAIKAFIAVYYLLPKDQGITLRKLVRGATLDIVDGMAQLMEVLSVTPTQSPENNDLISYNSVWVACQQMPQIPRDNKAAALLMLTKNVDFVKDAHEEMEQAVEECDPYSGLLNDTEENNSDNHNHEDDVLGFPSNQDLYWSEDDQELIIPCLALVRASKACLKKIRMLVAENGKKDQVAQLDDIVDISDEISPSVDDLALSIYPPMCHLTVRINSAKLVSVLKKALEITKASHVTPQPEDSWIPLLINAIDHCMNRIKELTQSELEL
partner: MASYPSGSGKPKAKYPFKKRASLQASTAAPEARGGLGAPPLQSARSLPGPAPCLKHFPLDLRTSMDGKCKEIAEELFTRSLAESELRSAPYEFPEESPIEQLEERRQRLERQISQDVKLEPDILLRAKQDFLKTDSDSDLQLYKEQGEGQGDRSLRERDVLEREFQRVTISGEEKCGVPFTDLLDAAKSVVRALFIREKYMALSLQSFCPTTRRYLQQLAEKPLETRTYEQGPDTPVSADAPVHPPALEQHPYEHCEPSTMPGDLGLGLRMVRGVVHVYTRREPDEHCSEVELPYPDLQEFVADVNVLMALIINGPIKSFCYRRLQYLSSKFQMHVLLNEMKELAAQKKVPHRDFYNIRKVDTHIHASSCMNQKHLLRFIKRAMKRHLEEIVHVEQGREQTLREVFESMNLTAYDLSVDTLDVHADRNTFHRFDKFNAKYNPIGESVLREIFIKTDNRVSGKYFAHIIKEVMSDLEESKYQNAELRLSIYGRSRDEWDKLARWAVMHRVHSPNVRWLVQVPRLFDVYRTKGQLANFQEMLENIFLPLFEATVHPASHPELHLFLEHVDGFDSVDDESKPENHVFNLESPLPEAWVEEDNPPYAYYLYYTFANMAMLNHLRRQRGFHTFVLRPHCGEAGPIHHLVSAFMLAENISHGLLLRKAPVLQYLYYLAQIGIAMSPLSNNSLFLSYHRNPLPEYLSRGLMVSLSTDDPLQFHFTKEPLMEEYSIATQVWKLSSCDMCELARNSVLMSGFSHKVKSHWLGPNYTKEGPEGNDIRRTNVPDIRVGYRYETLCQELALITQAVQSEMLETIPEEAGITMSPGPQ
B2: Membrane protein FAM174A (Homo sapiens), Q8TBP5 (parent)
chain: MKASQCCCCLSHLLASVLLLLLLPELSGPLAVLLQAAEAAPGLGPPDPRPRTLPPLPPGPTPAQQPGRGLAEAAGPRGSEGGNGSNPVAGLETDDHGGKAGEGSVGGGLAVSPNPGDKPMTQRALTVLMVVSGAVLVYFVVRTVRMRRRNRKTRRYGVLDTNIENMELTPLEQDDEDDDNTLFDANHPRR
partner: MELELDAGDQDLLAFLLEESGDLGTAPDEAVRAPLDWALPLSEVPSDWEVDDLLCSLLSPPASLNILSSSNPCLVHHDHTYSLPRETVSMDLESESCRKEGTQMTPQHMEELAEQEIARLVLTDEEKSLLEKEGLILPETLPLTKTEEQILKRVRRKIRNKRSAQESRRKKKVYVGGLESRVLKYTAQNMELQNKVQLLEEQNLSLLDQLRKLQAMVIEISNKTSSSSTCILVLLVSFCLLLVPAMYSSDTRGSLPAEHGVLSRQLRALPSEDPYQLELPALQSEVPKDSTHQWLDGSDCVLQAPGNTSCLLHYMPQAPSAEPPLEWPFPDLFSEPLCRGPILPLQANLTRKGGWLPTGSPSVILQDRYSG
B3: N-chimaerin (Homo sapiens), P15882 (parent)
chain: MALTLFDTDEYRPPVWKSYLYQLQQEAPHPRRITCTCEVENRPKYYGREFHGMISREAADQLLIVAEGSYLIRESQRQPGTYTLALRFGSQTRNFRLYYDGKHFVGEKRFESIHDLVTDGLITLYIETKAAEYIAKMTINPIYEHVGYTTLNREPAYKKHMPVLKETHDERDSTGQDGVSEKRLTSLVRRATLKENEQIPKYEKIHNFKVHTFRGPHWCEYCANFMWGLIAQGVKCADCGLNVHKQCSKMVPNDCKPDLKHVKKVYSCDLTTLVKAHTTKRPMVVDMCIREIESRGLNSEGLYRVSGFSDLIEDVKMAFDRDGEKADISVNMYEDINIITGALKLYFRDLPIPLITYDAYPKFIESAKIMDPDEQLETLHEALKLLPPAHCETLRYLMAHLKRVTLHEKENLMNAENLGIVFGPTLMRSPELDAMAALNDIRYQRLVVELLIKNEDILF
B4: Syntenin-2 (Homo sapiens), Q9H190 (parent)
chain: MSSLYPSLEDLKVDQAIQAQVRASPKMPALPVQATAISPPPVLYPNLAELENYMGLSLSSQEVQESLLQIPEGDSTAVSGPGPGQMVAPVTGYSLGVRRAEIKPGVREIHLCKDERGKTGLRLRKVDQGLFVQLVQANTPASLVGLRFGDQLLQIDGRDCAGWSSHKAHQVVKKASGDKIVVVVRDRPFQRTVTMHKDSMGHVGFVIKKGKIVSLVKGSSAARNGLLTNHYVCEVDGQNVIGLKDKKIMEILATAGNVVTLTIIPSVIYEHMVKKLPPVLLHHTMDHSIPDA
partner: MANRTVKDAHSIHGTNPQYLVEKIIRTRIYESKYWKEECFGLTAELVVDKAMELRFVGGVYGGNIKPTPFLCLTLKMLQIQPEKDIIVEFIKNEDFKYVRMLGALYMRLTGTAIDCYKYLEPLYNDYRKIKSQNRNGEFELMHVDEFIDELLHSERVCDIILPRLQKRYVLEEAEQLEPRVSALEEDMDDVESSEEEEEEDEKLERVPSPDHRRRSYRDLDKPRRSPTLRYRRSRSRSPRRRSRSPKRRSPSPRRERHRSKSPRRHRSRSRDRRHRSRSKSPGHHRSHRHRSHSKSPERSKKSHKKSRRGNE
B5: E3 ubiquitin-protein ligase MARCHF5 (Homo sapiens), Q9NX47 (parent)
chain: MPDQALQQMLDRSCWVCFATDEDDRTAEWVRPCRCRGSTKWVHQACLQRWVDEKQRGNSTARVACPQCNAEYLIVFPKLGPVVYVLDLADRLISKACPFAAAGIMVGSIYWTAVTYGAVTVMQVVGHKEGLDVMERADPLFLLIGLPTIPVMLILGKMIRWEDYVLRLWRKYSNKLQILNSIFPGIGCPVPRIPAEANPLADHVSATRILCGALVFPTIATIVGKLMFSSVNSNLQRTILGGIAFVAIKGAFKVYFKQQQYLRQAHRKILNYPEQEEA
B6: Notch homolog 2 N-terminal-like protein A (Homo sapiens), Q7Z3S9 (parent)
chain: MCVTYHNGTGYCKCPEGFLGEYCQHRDPCEKNRCQNGGTCVAQAMLGKATCRCASGFTGEDCQYSTSHPCFVSRPCLNGGTCHMLSRDTYECTCQVGFTGKECQWTDACLSHPCANGSTCTTVANQFSCKCLTGFTGQKCETDVNECDIPGHCQHGGTCLNLPGSYQCQCLQGFTGQYCDSLYVPCAPSPCVNGGTCRQTGDFTFECNCLPETVRRGTELWERDREVWNGKEHDEN
partner: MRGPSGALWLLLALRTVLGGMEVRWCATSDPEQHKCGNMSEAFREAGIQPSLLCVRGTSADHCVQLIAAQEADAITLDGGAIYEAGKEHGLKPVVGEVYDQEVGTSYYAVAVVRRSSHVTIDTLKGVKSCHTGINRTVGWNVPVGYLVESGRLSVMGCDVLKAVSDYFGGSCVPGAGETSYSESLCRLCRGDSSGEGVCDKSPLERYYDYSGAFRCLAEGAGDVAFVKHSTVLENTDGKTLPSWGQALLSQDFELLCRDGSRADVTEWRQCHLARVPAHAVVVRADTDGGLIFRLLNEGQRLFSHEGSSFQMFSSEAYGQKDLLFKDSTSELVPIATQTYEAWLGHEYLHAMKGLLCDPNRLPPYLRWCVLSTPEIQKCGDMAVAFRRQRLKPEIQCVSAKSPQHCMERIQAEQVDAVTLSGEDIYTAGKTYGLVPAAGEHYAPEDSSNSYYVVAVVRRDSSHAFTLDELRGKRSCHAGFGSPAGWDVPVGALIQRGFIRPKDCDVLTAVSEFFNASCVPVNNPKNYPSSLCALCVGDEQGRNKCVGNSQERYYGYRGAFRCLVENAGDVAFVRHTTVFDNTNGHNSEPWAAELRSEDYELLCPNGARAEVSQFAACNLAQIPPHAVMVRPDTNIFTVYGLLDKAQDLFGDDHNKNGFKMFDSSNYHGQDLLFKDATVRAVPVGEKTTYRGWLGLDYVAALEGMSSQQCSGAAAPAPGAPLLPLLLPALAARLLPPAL
B7: E3 ubiquitin-protein ligase MYLIP (Homo sapiens), Q8WY64 (parent)
chain: MLCYVTRPDAVLMEVEVEAKANGEDCLNQVCRRLGIIEVDYFGLQFTGSKGESLWLNLRNRISQQMDGLAPYRLKLRVKFFVEPHLILQEQTRHIFFLHIKEALLAGHLLCSPEQAVELSALLAQTKFGDYNQNTAKYNYEELCAKELSSATLNSIVAKHKELEGTSQASAEYQVLQIVSAMENYGIEWHSVRDSEGQKLLIGVGPEGISICKDDFSPINRIAYPVVQMATQSGKNVYLTVTKESGNSIVLLFKMISTRAASGLYRAITETHAFYRCDTVTSAVMMQYSRDLKGHLASLFLNENINLGKKYVFDIKRTSKEVYDHARRALYNAGVVDLVSRNNQSPSHSPLKSSESSMNCSSCEGLSCQQTRVLQEKLRKLKEAMLCMVCCEEEINSTFCPCGHTVCCESCAAQLQSCPVCRSRVEHVQHVYLPTHTSLLNLTVI
partner: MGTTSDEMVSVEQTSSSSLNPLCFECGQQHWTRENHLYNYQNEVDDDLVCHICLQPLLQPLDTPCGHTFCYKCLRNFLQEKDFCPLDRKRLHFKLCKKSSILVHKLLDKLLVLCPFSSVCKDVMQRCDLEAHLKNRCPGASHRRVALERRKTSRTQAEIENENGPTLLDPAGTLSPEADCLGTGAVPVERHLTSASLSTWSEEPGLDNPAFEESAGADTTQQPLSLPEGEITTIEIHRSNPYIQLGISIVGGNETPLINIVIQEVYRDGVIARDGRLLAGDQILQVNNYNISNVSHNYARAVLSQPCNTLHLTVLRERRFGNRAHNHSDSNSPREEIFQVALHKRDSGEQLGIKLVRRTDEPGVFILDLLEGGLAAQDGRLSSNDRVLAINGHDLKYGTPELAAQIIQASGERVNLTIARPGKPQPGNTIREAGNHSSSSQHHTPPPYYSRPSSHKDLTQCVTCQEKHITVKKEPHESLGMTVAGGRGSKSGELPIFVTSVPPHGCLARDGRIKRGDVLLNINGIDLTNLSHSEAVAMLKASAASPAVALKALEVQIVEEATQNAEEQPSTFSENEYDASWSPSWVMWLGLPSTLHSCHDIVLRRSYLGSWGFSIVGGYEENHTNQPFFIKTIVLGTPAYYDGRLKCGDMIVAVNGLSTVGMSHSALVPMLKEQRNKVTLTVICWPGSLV
B8: Zinc finger protein 544 (Homo sapiens), Q6NX49 (parent)
chain: MEARSMLVPPQASVCFEDVAMAFTQEEWEQLDLAQRTLYREVTLETWEHIVSLGLFLSKSDVISQLEQEEDLCRAEQEAPRDWKATLEENRLNSEKDRAREELSHHVEVYRSGPEEPPSLVLGKVQDQSNQLREHQENSLRFMVLTSERLFAQREHCELELGGGYSLPSTLSLLPTTLPTSTGFPKPNSQVKELKQNSAFINHEKNGADGKHCESHQCARAFCQSIYLSKLGNVETGKKNPYEYIVSGDSLNYGSSLCFHGRTFSVKKSDDCKDYGNLFSHSVSLNEQKPVHFGKSQYECDECRETCSESLCLVQTERSGPGETPFRCEERCAAFPMASSFSDCNIIQTTEKPSVCNQCGKSFSCCKLIHQRTHTGEKPFECTQCGKSFSQSYDLVIHQRTHTGEKPYECDLCGKSFTQRSKLITHQRIHTGEKPYQCIECRKSFRWNSNLIVHQRIHTGEKPYECTHCGKSFSQSYELVTHKRTHTGEKPFKCTQCGKSFSQKYDLVVHQRTHTGEKPYECNLCGKSFSQSSKLITHQRIHTGEKPYQCIECGKSFRWNSNLVIHQRIHTGEKPYDCTHCGKSFSQSYQLVAHKRTHTGEKPYECNECGKAFNRSTQLIRHLQIHTGEKPYKCNQCNKAFARSSYLVMHQRTHTGEKPFECSQCGKAFSGSSNLLSHHRIHSGEKPYECSDCGKSFRQQSQLVVHRRTHTGEKP
partner: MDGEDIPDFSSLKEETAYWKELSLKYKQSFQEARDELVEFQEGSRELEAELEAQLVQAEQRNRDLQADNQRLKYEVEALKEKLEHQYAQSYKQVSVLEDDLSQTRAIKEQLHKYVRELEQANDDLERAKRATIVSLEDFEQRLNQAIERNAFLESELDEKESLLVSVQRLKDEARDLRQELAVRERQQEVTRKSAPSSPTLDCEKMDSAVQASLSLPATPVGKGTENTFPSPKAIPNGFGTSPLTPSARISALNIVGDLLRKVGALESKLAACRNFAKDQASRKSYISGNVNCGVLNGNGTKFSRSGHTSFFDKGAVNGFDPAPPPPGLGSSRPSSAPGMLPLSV

Variants of: B1
Settings: with ampd2_human AMPD2, Q01433
In the case of I277T, the “effect of a mutation on the interaction” value is reported as “disrupting interaction strength”.

Variants of: B2
Settings: with creb3_human CREB3, O43889
D95G was tested, and the “effect of a mutation on the interaction” value was “with no effect”.

Variants of: B3
Settings: with nck2_human NCK2, O43639
Sequence of nck2_human NCK2, O43639 (O43639 whole entry): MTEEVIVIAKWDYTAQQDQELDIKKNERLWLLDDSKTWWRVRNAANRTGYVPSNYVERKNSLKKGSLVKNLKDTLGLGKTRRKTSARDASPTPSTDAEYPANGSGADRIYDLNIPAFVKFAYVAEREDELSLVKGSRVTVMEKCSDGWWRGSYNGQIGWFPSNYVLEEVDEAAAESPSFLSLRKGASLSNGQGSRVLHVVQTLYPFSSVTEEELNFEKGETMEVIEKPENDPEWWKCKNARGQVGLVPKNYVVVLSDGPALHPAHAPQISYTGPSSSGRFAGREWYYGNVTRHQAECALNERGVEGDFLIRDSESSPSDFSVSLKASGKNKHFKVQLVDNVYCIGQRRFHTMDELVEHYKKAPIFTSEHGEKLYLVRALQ
D115N was tested, and the “effect of a mutation on the interaction” value was “with no effect”.

Variants of: B4
Settings: with pr38a_human PRPF38A
With G242R the “effect of a mutation on the interaction” value was “disrupting interaction strength”. With V182M the “effect of a mutation on the interaction” value was “with no effect”. With G225R the “effect of a mutation on the interaction” value was “disrupting interaction strength”.

Variants of: B5
Settings: with ube2w_human UBE2W
With D202N the “effect of a mutation on the interaction” value was “with no effect”. T20A was tested, and the “effect of a mutation on the interaction” value was “with no effect”.

Variants of: B6
Settings: with trfm_human MELTF
R74Q was tested, and the “effect of a mutation on the interaction” value was “with no effect”. A115T was tested, and the “effect of a mutation on the interaction” value was “with no effect”.

Variants of: B7
Settings: with lnx2_human LNX2, Q8N448
In the case of N342S, the “effect of a mutation on the interaction” value is reported as “with no effect”.

Variants of: B8
Settings: with ndel1_human NDEL1, Q9GZM8
K406M was tested, and the “effect of a mutation on the interaction” value was “with no effect”.
